One data set deals with T1, C-reactive protein (CRP) (UniProt P02741 19-224).
T1 sequence: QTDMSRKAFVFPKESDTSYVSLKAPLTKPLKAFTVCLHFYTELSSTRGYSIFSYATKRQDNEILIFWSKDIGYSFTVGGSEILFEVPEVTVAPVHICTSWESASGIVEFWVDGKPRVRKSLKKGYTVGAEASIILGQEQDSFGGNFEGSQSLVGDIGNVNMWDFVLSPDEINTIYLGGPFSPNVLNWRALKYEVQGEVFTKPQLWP
In words: electrochemical aptasensor (DPV); 1 ng/mL CRP; aptamer immobilized on SPE/AuNPs/GO-COOH, BSA-blocked; linear range 0.001-100 ng/mL, LOD 2.941e-4 ng/mL; PBS as solvent, 100 uL sample; DPV -0.6 to 0 V, peak about -0.4 V; BSA-blocked electrode; pH, salt and assay temperature not stated. Particulars: protein: commercial; chain copies: 5.

For data set [1], the target named is B-type brain natriuretic peptide (BNP) (UniProt P16860 103-134). In words: electrochemical aptasensor (DPV); 1 ng/mL; current below blank, attributed to physical adsorption; PBS as solvent, 100 uL sample; DPV -0.6 to 0 V, peak about -0.4 V; BSA-blocked electrode; pH, salt and assay temperature not stated. Particulars: protein: commercial.
Chain of B-type brain natriuretic peptide (BNP) (P16860 103-134): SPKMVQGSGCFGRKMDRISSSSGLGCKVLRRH
The target in another data set is PSA (PSA standard) (UniProt P07288 25-261). The description is as above. The note with it: protein: commercial.
Chain of PSA (PSA standard) (P07288 25-261): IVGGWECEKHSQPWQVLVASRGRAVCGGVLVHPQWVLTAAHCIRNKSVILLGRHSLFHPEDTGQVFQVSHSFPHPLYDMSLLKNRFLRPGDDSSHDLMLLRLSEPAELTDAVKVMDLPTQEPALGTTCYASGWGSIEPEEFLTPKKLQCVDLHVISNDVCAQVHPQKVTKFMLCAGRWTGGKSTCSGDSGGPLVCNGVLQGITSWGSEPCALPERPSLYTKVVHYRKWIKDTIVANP

For GCCTGTAAGGTGGTCGGTGTGGCGAGTGTGTTAGGAGAGATTGC (ssDNA, 5'-NH2) [CRP aptamer], the binding result is on record as “binds” with C-reactive protein (CRP), “no binding” in data set [1] and “no binding” in the data set with PSA (PSA standard).

(Values after article PMC9775280, “A Simple Label-Free Aptamer-Based Electrochemical Biosensor for the Sensitive Detection of C-Reactive Proteins”.)
